Values joined by “and” are separate entries in the source; they are usually repeats but may differ in a detail not shown here. Equal values may be shown once. Read-outs that look alike come from different tables or passages of the source. No end group written: not given here. *: point of attachment. AMC = Cc1cc(=O)oc2cc(N*)ccc12
Columns and labels:
VsHdaH (1b) = type: biochemical, Vibrio sp.
RsPrpH (1b) = test: Substrate screening assay (acyl-peptide-AMC); type: biochemical, Rhizorhabdus sp.
RwDmhA (1b) = RwDmhA (1b) (Rhizorhabdus wittichii, UniProt A0A067XIQ6); type: biochemical
KpHdaH (1b) = KpHdaH (1b) (Klebsiella pneumoniae, UniProt A0A377Z5F6); type: biochemical
BsAcuC (2c) = target: T1, BsAcuC (2c) (Bacillus subtilis, UniProt P39067); test: Substrate screening assay (acyl-peptide-AMC); type: biochemical
T1 construct: made in house; host or cells: E. coli BL21 (DE3)
T1 sequence (P39067 1-387): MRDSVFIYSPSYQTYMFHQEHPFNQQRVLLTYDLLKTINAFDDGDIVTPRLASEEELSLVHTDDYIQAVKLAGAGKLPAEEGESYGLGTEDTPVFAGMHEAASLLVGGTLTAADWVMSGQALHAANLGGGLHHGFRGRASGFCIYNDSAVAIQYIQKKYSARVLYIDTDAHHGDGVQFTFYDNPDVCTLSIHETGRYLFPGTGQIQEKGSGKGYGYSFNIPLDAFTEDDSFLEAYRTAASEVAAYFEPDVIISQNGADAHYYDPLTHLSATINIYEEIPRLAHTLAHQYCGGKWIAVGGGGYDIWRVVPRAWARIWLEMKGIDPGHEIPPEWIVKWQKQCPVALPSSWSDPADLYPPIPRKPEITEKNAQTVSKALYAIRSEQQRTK
Procedure: (§1) Experiments with SIRT2 and SIRT5 were supplemented with NAD^+ (500 µM). Thereafter, a solution of trypsin (25 µL, 5.0 mg/mL; final concentration of 2.5 mg/mL) was added, and the development of the assay was allowed to proceed for 90 min at room temperature before fluorescence analysis. […] To this end, a single category is given to all conversions >48% on the heatmap. […] For the H4-derived peptide LGKbio no positive control was available.

VcHdaH (5b) = type: biochemical, Vibrio cholerae
PsApaH (4) = PsApaH (4) (Pseudomonas sp. M30-35, UniProt A0A1Y0KY79); type: biochemical
Procedure: as §1

LcApaH (3) = LcApaH (3) (Legionella cherrii, UniProt A0A0W0SGS1); type: biochemical
LpApaH (3) = LpApaH (3) (Legionella pneumophila, UniProt A0A2S6EWV0); type: biochemical
Controls [1] = type: biochemical
Controls [2] = type: biochemical; remark: listed apart in the source
[3] = substrate screening, mean of two measurements
[4] = substrate screening, measurement 1 of two
[5] = substrate screening, measurement 2 of two

QPKKlau (QPKK-{AMC}; not fully specified (residue 4); printed as QPKKlau; also: lauroyl-lysine (which Lys not given here); UniProt P04637 317-320, looked up, fragment)
RFU means, VsHdaH (1b) (VsHdaH (1b); means of two measurements): -74 RFU | RFU*2 means, VsHdaH (1b) (VsHdaH (1b); means of two measurements): -148 RFU*2 | [AMC] (nM), VsHdaH (1b), means (VsHdaH (1b); [3]): -72.27 nM | [AMC] (nM), VsHdaH (1b) (VsHdaH (1b); [4]): -150.39 nM | [AMC] (nM), VsHdaH (1b) (VsHdaH (1b); [5]): 5.86 nM | RFU means, RsPrpH (1b) (RsPrpH (1b)): -143.5 RFU | RFU*2 means, RsPrpH (1b) (RsPrpH (1b)): -287 RFU*2 | [AMC] (nM), RsPrpH (1b), means (RsPrpH (1b)): -140.14 nM | RFU means, RwDmhA (1b) (RwDmhA (1b)): -41 RFU | RFU*2 means, RwDmhA (1b) (RwDmhA (1b)): -82 RFU*2 | [AMC] (nM), RwDmhA (1b), means (RwDmhA (1b)): -40.04 nM | RFU means, KpHdaH (1b) (KpHdaH (1b); means of two measurements): -136.5 RFU | RFU*2 means, KpHdaH (1b) (KpHdaH (1b); means of two measurements): -273 RFU*2 | [AMC] (nM), KpHdaH (1b), means (KpHdaH (1b); [3]): -133.30 nM | [AMC] (nM), KpHdaH (1b) (KpHdaH (1b); [4]): -172.85 nM | [AMC] (nM), KpHdaH (1b) (KpHdaH (1b); [5]): -93.75 nM | RFU means, BsAcuC (2c) (BsAcuC (2c); means of two measurements): 849.5 RFU | RFU*2 means, BsAcuC (2c) (BsAcuC (2c); means of two measurements): 1699 RFU*2 | [AMC] (nM), BsAcuC (2c), means (BsAcuC (2c); [3]): 829.59 nM | RFU*2, BsAcuC (2c) (BsAcuC (2c); two measurements, single values): 2008 RFU*2 and 1390 RFU*2 | RFU means, VcHdaH (5b) (VcHdaH (5b); means of two measurements): -82 RFU | RFU*2 means, VcHdaH (5b) (VcHdaH (5b); means of two measurements): -164 RFU*2 | [AMC] (nM), VcHdaH (5b), means (VcHdaH (5b); [3]): -80.08 nM | RFU means, PsApaH (4) (PsApaH (4); means of two measurements): 131 RFU | RFU*2 means, PsApaH (4) (PsApaH (4); means of two measurements): 262 RFU*2 | [AMC] (nM), PsApaH (4), means (PsApaH (4); [3]): 127.93 nM | [AMC] (nM), PsApaH (4) (PsApaH (4); [4]): 191.41 nM | [AMC] (nM), PsApaH (4) (PsApaH (4); [5]): 64.45 nM | RFU means, LcApaH (3) (LcApaH (3)): 6.5 RFU | RFU*2 means, LcApaH (3) (LcApaH (3)): 13 RFU*2 | [AMC] (nM), LcApaH (3), means (LcApaH (3)): 6.35 nM | RFU means, LpApaH (3) (LpApaH (3)): 10.5 RFU | RFU*2 means, LpApaH (3) (LpApaH (3)): 21 RFU*2 | [AMC] (nM), LpApaH (3), means (LpApaH (3)): 10.25 nM | RFU means, controls (Controls [1]): 11610 RFU | RFU*2, controls (Controls [1]): 21150 RFU*2 and 25290 RFU*2 | RFU*2 means, controls (Controls [1]): 23220 RFU*2 | RFU, controls (Controls [1]): 10575 RFU and 12645 RFU | [AMC] (nM), controls, means (Controls [2]): 11337.89 nM

From paper PMC11532494 (Nature Communications, 2024)
